Test results reported in the supplement of paper PMC11246515.
± gives the standard deviation of the averaged measurements.

Assay: total protein half-life in vivo (active degradation + dilution); higher = more stable protein
[1] = E. coli NCM3722 delta-clpP delta-lon delta-hslV, growth: N-lim chemostat, doubling time 6 h
[2] = E. coli NCM3722 delta-hslV, growth: N-lim chemostat, doubling time 6 h
[3] = E. coli NCM3722 delta-lon, growth: N-lim chemostat, doubling time 6 h
[4] = E. coli NCM3722 delta-smpB, growth: N-lim chemostat, doubling time 6 h
[5] = wild type E. coli NCM3722, growth: C-lim chemostat, doubling time 3 h
[6] = wild type E. coli NCM3722, growth: C-lim chemostat, doubling time 6 h
[7] = wild type E. coli NCM3722, growth: C-lim chemostat, doubling time 12 h
[8] = wild type E. coli NCM3722, growth: N-lim chemostat, doubling time 6 h
[9] = wild type E. coli NCM3722, growth: N-lim chemostat, doubling time 12 h
[10] = wild type E. coli NCM3722, growth: P-lim chemostat, doubling time 6 h
[11] = wild type E. coli NCM3722, growth: P-lim chemostat, doubling time 12 h
[12] = E. coli NCM3722 delta-clpP, growth: N-lim chemostat, doubling time 6 h

Sequence | total protein half-life in vivo [1] [h] | total protein half-life in vivo [2] [h] | total protein half-life in vivo [3] [h] | total protein half-life in vivo [4] [h] | total protein half-life in vivo [5] [h] | total protein half-life in vivo [6] [h] | total protein half-life in vivo [7] [h] | total protein half-life in vivo [8] [h] | total protein half-life in vivo [9] [h] | total protein half-life in vivo [10] [h] | total protein half-life in vivo [11] [h] | total protein half-life in vivo [12] [h]
MRQKETTATTRFSLLPGSITRFFLLLIIVLLVTMGVMVQSAVNAWLKDKSYQIVDITHAIQKRVDNWRYVTWQIYDNIAATTSPSSGEGLQETRLKQDVYYLEKPRRKTEALIFGSHDNSTLEMTQRMSTYLDTLWGAENVPWSMYYLNGQDNSLVLISTLPLKDLTSGFKESTVSDIVDSRRAEMLQQANALDERESFSNMRRLAWQNGHYFTLRTTFNQPGHLATVVAFDLPINDLIPPGMPLDSFRLEPDATATGNNDNEKEGTDSVSIHFNSTKIEISSALNSTDMRLVWQVPYGTLLLDTLQNILLPLLLNIGLLALALFGYTTFRHFSSRSTENVPSTAVNNELRILRAINEEIVSLLPLGLLVHDQESNRTVISNKIADHLLPHLNLQNITTMAEQHQGIIQATINNELYEIRMFRSQVAPRTQIFIIRDQDREVLVNKKLKQAQRLYEKNQQGRMIFMKNIGDALKEPAQSLAESAAKLNAPESKQLANQADVLVRLVDEIQLANMLADDSWKSETVLFSVQDLIDEVVPSVLPAIKRKGLQLLINNHLKAHDMRRGDRDALRRILLLLMQYAVTSTQLGKITLEVDQDESSEDRLTFRILDTGEGVSIHEMDNLHFPFINQTQNDRYGKADPLAFWLSDQLARKLGGHLNIKTRDGLGTRYSVHIKMLAADPEVEEEEERLLDDVCVMVDVTSAEIRNIVTRQLENWGATCITPDERLISQDYDIFLTDNPSNLTASGLLLSDDESGVREIGPGQLCVNFNMSNAMQEAVLQLIEVQLAQEEVTESPLGGDENAQLHASGYYALFVDTVPDDVKRLYTEAATSDFAALAQTAHRLKGVFAMLNLVPGKQLCETLEHLIREKDVPGIEKYISDIDSYVKSLL | 6.226 ± 0.058 | 6.72 ± 0.27 | 6.86 ± 0.49 | 6.32 ± 0.7 | 3.25 ± 0.077 | 6.3 ± 0.57 | 11.13 ± 0.09 | 6.21 ± 0.15 | 12.6 ± 0.92 | 7 ± 0.88 | 12.9 ± 0.27 | 
MTRAVKPRRFAIRPIIYASVLSAGVLLCAFSAHADERDQLKSIQADIAAKERAVRQKQQQRASLLAQLKKQEEAISEATRKLRETQNTLNQLNKQIDEMNASIAKLEQQKAAQERSLAAQLDAAFRQGEHTGIQLILSGEESQRGQRLQAYFGYLNQARQETIAQLKQTREEVAMQRAELEEKQSEQQTLLYEQRAQQAKLTQALNERKKTLAGLESSIQQGQQQLSELRANESRLRNSIARAEAAAKARAEREAREAQAVRDRQKEATRKGTTYKPTESEKSLMSRTGGLGAPRGQAFWPVRGPTLHRYGEQLQGELRWKGMVIGASEGTEVKAIADGRVILADWLQGYGLVVVVEHGKGDMSLYGYNQSALVSVGSQVRAGQPIALVGSSGGQGRPSLYFEIRRQGQAVNPQPWLGR | 6.31 ± 0.39 | 6.76 ± 0.51 | 7.049 ± 0.041 | 6 ± 0.41 | 3.18 ± 0.08 | 5.778 ± 0.045 | 11.3 ± 0.53 | 6.31 ± 0.22 | 13.1 ± 0.39 | 5.92 ± 0.37 | 12.9 ± 0.95 | 6.29 ± 0.37
MQVFIMRHGDAALDAASDSVRPLTTNGCDESRLMANWLKGQKVEIERVLVSPFLRAEQTLEEVGDCLNLPSSAEVLPELTPCGDVGLVSAYLQALTNEGVASVLVISHLPLVGYLVAELCPGETPPMFTTSAIASVTLDESGNGTFNWQMSPCNLKMAKAI | 4.59 ± 0.56 | 0.943 ± 0.06 | 0.853 ± 0.11 | 1.03 ± 0.01 | 1.06 ± 0.013 | 1.35 ± 0.12 | 1.57 ± 0.41 | 1.13 ± 0.12 | 1.5 ± 0.33 | 1.25 ± 0.38 | 2.5 ± 0.88 | 4.209 ± 0.026
MSNKPFHYQAPFPLKKDDTEYYLLTSEHVSVSEFEGQEILKVAPEALTLLARQAFHDASFMLRPAHQQQVADILRDPEASENDKYVALQFLRNSDIAAKGVLPTCQDTGTAIIVGKKGQRVWTGGGDEAALARGVYNTYIEDNLRYSQNAPLDMYKEVNTGTNLPAQIDLYAVDGDEYKFLCIAKGGGSANKTYLYQETKALLTPGKLKNYLVEKMRTLGTAACPPYHIAFVIGGTSAETNLKTVKLASAKYYDELPTEGNEHGQAFRDVELEKELLIEAQNLGLGAQFGGKYFAHDIRVIRLPRHGASCPVGMGVSCSADRNIKAKINRQGIWIEKLEHNPGKYIPEELRKAGEGEAVRVDLNRPMKEILAQLSQYPVSTRLSLNGTIIVGRDIAHAKLKERMDNGEGLPQYIKDHPIYYAGPAKTPEGYASGSLGPTTAGRMDSYVDQLQAQGGSMIMLAKGNRSQQVTDACKKHGGFYLGSIGGPAAVLAQGSIKSLECVEYPELGMEAIWKIEVEDFPAFILVDDKGNDFFQQIQLTQCTRCVK [P0AC33] | 4.02 ± 1.1 | 2.53 ± 0.47 | 2.86 ± 0.043 | 2.36 ± 0.071 | 3.13 ± 0.2 | 4.39 ± 0.14 | 7.67 ± 1.4 | 2.51 ± 0.22 | 3.37 ± 0.11 | 5.02 ± 0.12 | 8.932 ± 0.051 | 2.82 ± 0.17
MATIKDVAKRANVSTTTVSHVINKTRFVAEETRNAVWAAIKELHYSPSAVARSLKVNHTKSIGLLATSSEAAYFAEIIEAVEKNCFQKGYTLILGNAWNNLEKQRAYLSMMAQKRVDGLLVMCSEYPEPLLAMLEEYRHIPMVVMDWGEAKADFTDAVIDNAFEGGYMAGRYLIERGHREIGVIPGPLERNTGAGRLAGFMKAMEEAMIKVPESWIVQGDFEPESGYRAMQQILSQPHRPTAVFCGGDIMAMGALCAADEMGLRVPQDVSLIGYDNVRNARYFTPALTTIHQPKDSLGETAFNMLLDRIVNKREEPQSIEVHPRLIERRSVADGPFRDYRR [P0ACP7] | 5.38 ± 0.92 | 4.538 ± 0.044 | 5.39 ± 0.36 | 4.55 ± 0.3 | 3.02 ± 0.049 | 5.87 ± 0.35 | 10.4 ± 1.1 | 5.02 ± 0.61 | 7.74 ± 1.6 | 5.29 ± 0.41 | 10.9 ± 1.4 | 5.291 ± 0.032
MPENYTPAAAATGTWTEEEIRHQPRAWIRSLTNIDALRSALNNFLEPLLRKENLRIILTGAGTSAFIGDIIAPWLASHTGKNFSAVPTTDLVTNPMDYLNPAHPLLLISFGRSGNSPESVAAVELANQFVPECYHLPITCNEAGALYQNAINSDNAFALLMPAETHDRGFAMTSSITTMMASCLAVFAPETINSQTFRDVADRCQAILTSLGDFSEGVFGYAPWKRIVYLGSGGLQGAARESALKVLELTAGKLAAFYDSPTGFRHGPKSLVDDETLVVVFVSSHPYTRQYDLDLLAELRRDNQAMRVIAIAAESSDIVAAGPHIILPPSRHFIDVEQAFCFLMYAQTFALMQSLHMGNTPDTPSASGTVNRVVQGVIIHPWQA |  |  |  |  | 3.44 ± 0.35 | 3.18 | 5.91 |  |  |  |  | 
MLKTIRKHGITLALFAAGSTGLTAAINQMTKTTIAEQASLQQKALFDQVLPAERYNNALAQSCYLVTAPELGKGEHRVYIAKQDDKPVAAVLEATAPDGYSGAIQLLVGADFNGTVLGTRVTEHHETPGLGDKIELRLSDWITHFAGKKISGADDAHWAVKKDGGDFDQFTGATITPRAVVNAVKRAGLYAQTLPAQLSQLPACGE | 5.83 ± 1.8 | 6.171 ± 0.022 | 5.52 ± 1.2 | 6.06 ± 0.48 | 3.07 ± 0.086 | 5.7 ± 0.36 | 10.6 ± 1.6 | 5.75 ± 0.07 | 11.9 ± 0.64 | 5.82 ± 0.13 | 11.9 ± 0.49 | 
